From paper doi:10.1101/2022.10.12.511876
Where two headings read alike, the source gives them in different places.

Legend:
[1] = molecular target: Mpf2Ba1 activated by WCR gut fluid (N-terminally cleaved after Lys25) (Pseudomonas monteilii); experiment: cryo-EM structure
[2] = molecular target: Mpf2Ba1 activated by WCR gut fluid (N-terminally cleaved after Lys25) (Pseudomonas monteilii); experiment: cryo-EM structure; remark: listed apart in the source

Substance: Mpf2Ba1 activated by WCR gut fluid (N-terminally cleaved after Lys25) (domain or fragment)
- stoichiometry N [1]: 22
- stoichiometry N [2]: 21
